Experiments:
[1] = biological target: 3TD of SETDB1, W358A mutant, as used in ITC and crystals (UniProt Q15047); experiment: ITC; 25 °C, VP-ITC, 20 mM Tris/HCl pH 7.0, 150 mM NaCl; protein 50 to 100 μM, ligand 1–2 mM; one-site binding model
[2] = biological target: H3K9me3/K14ac peptide in solution (ITC; crystals); experiment: ITC; conditions: read off a plot
[3] = biological target: H3K9me2/K14ac peptide in solution (ITC; crystal with W358A), limits not stated; experiment: ITC; conditions: read off a plot
[4] = biological target: H3K9me1/K14ac peptide in solution (ITC); experiment: ITC; conditions: read off a plot

Q: With “H3K9me2/K14ac peptide in solution (ITC; crystal with W358A), limits not stated” as the substance, how does the fold reduction of affinity against wildtype 3TD [1] read?
A: 18 fold

Q: Which fold reduction of binding against wildtype 3TD [1] does the source give for “H3K9me3/K14ac peptide in solution (ITC; crystals)” here?
A: 2 fold

Q: With “triple Tudor domain (3TD) of SETDB1, wildtype, as used in solution (ITC, NMR, crystals) (from UniProt Q15047) Y268A” as the substance, how does the ratio to parent [2] read?
A: 0.18

Q: And the ratio to parent [3]?
A: 1.1

Q: What about the ratio to parent [4] of the same substance?
A: 1.5

Source: paper PMC5727127, “H3K14ac is linked to methylation of H3K9 by the triple Tudor domain of SETDB1” (Nature Communications, 2017)
